According to US20230331816A1, “A METHOD FOR PREPARING PORCINE MYOGLOBIN USING ESCHERICHIA COLI” (iNtRON Biotechnology, Inc., priority 2020, published 2023):

System: iron-deficiency-anemia-induced animals
Format: in vivo, Sprague-Dawley rats
Protocol: The composition containing porcine myoglobin prepared according to the present invention was administered to iron-deficiency-anemia-induced animals, whereby the effectiveness of the composition containing porcine myoglobin on alleviating anemia was evaluated. Specifically, after 2 weeks acclimation period, thirty 9-week old Sprague-Dawley rats (female) were divided into 3 groups of 10 rats per group, among which one group was fed with normal feed in an amount of 10% of body weight daily for […] (Group 1; control), and the remaining two groups were fed with iron-deficient feed in an amount of 10% of body weight daily for 6 weeks to induce iron-deficiency anemia (Group 2 and Group 3). After 6 weeks of feeding, it was confirmed that iron-deficiency anemia was induced in the individual rat belonging to Group 2 and Group 3. Then, one of the anemia-induced groups was orally administered once a day with saline alone (Group 2), and the other anemia-induced group was orally administered once a day with solution containing porcine myoglobin (0.1 mg Fe/500 μl solution, Group 3). The administration continued for 5 weeks. During 5 weeks of administration to Group 2 and Group 3, Group 1 was continuously fed with normal feed, and Group 2 and Group 3 were fed with iron-deficient feed. […] After 5 weeks of administration, blood was collected, and whether anemia was alleviated was evaluated.

[1] = female Sprague-Dawley rats on iron-deficient feed, oral once a day, 0.1 mg Fe/500 μl solution, 5 weeks

B1: porcine myoglobin: porcine myoglobin consisting of a globin of SEQ ID NO: 1 and a heme of formula 1, made with Escherichia coli (protein)
chain: MGLSDGEWQLVLNVWGKVEADVAGHGQEVLIRLFKGHPETLEKFDKFKHLKSEDEMKASEDLKKHGNTVLTALGGILKKKGHHEAELTPLAQSHATKHKIPVKYLEFISEAIIQVLQSKHPGDFGADAQGAMSKALELFRNDMAAKYKELGFQG
modifications: heme; Porcine myoglobin
In the case of B1, the “Effectiveness at alleviating iron-deficiency anemia” value (conclusion from blood analysis after 5 weeks of administration) is reported as “effective at alleviating iron-deficiency anemia”, the “Blood test: Hematocrit” value [1] is reported as 39.8 ± 1.0% and the “Blood test: Hemoglobin content” value [1] is reported as 13.7 ± 0.6 g/dL. The “Weight of rats on 5 weeks after administration” value [1] was 327.2 ± 3.1 g.
